Results on 2 proteins are retold here after article PMC4048220, “Exploring the Electron Transfer Pathway in the Oxidation of Avermectin by CYP107Z13 in Streptomyces ahygroscopicus ZB01” (PLoS ONE, 2014).

Substrate in data set [1]: NC(=O)C1=CN([C@@H]2O[C@H](COP(=O)(O)OP(=O)(O)OC[C@H]3O[C@@H](n4cnc5c(N)ncnc54)[C@H](O)[C@@H]3O)[C@@H](O)[C@H]2O)C=CC1
Description: spectrophotometric DCPIP reduction. It counts as biochemical, Streptomyces ahygroscopicus. To be noted: DCPIP as electron acceptor.

Substrate in data set [2]: NC(=O)C1=CN([C@@H]2O[C@H](COP(=O)(O)OP(=O)(O)OC[C@H]3O[C@@H](n4cnc5c(N)ncnc54)[C@H](O)[C@@H]3O)[C@@H](O)[C@H]2O)C=CC1
The data set is described as follows: spectrophotometric DCPIP reduction. It counts as biochemical, Streptomyces hygroscopicus. To be noted: DCPIP as electron acceptor.

B1: FdR28 (Streptomyces ahygroscopicus; V1M) (protein)
chain: MVVGASLAGLRAAEALRGEGFTGSLTMIGDELGEPYDRPPLSKQVLTGWVPADNTKLPRRRDVDAEWLLGVPASGLDLANNHVRLADGRQVPFDRVPISTGVRARPWFVESEAALDGVFVVRTREHAEALQRALAAGPSRVLVIGAGFTGSEIASVCRERDIPVTVAELAPAPLVGALGAMIGDVAADVQRAHGVDLRCGVKVTQLEGDAQGRLRRAHFDDGTTVDADVAVVALGGIRNTDWLRDSGLAAGVWGIACDTGCRALDLNGLVTDDVFVAGDVARCPNPIYEYRLISLEHWANAVEQAEVAAHNMVSGQADRWPHLTLPLFWSIQFGINIKSVGVPTFADEVVVTQGSVPDHRFVAAYGYRGRVTAAVSFNNAKWLDHHRRLIETAAPFPPLCPTPDQPADTKPVPVDFPGPALLAQGATVVVTGHDPSERRVTAAYQHR
notes: FAD flavoprotein; pRSET-b (vector His tag), E. coli BL21(DE3), Ni-Sepharose purified; GTG start changed to ATG; cloning primers encode N-terminal MVVGAS, C-terminal TAAYQHR
Regarding B1, in data set [1], the Km turned out to be 25.4 µM and the kcat came to 6.43 s⁻¹.

B2: FdR18 (Streptomyces hygroscopicus) (protein)
chain: MVDAHQTFVIVGGGLAGAKAAETLRAEGFTGRVILICDERDHPYERPPLSKGYLLGKEERDSVFVHEPAFYAQARIELHLGQPAVHLDPAARTVRLGDGTLIAYDKLLLATGAEPRRLDVPGTGLAGVHHLRRLAHAERLRGVLASLGRENGHLVIAGAGWIGLEVAAAARSYGAEVTIIEPEPTPLHGILGPELGALFTDLHAEHGVRFHFGARLTEIVGQDGMVVSVRTDDGEEHPAHDVLAAIGAAPRTALAEQAGLDVVDRADGGGIAVDAALRTSDPFIHAAGDVAAADHPLLDTRLRVEHWANALNGGPAAARAMLGQDISYDRVPYFFSDQYDLGMEYSGYAPPGSYDQVVCRGDVGKREFIAFWLREGRVLAGMNVNVWDVAGDVQQLIRSGTPLDPEKLTDPTVPLTSLLP
notes: FAD flavoprotein; pRSET-b (vector His tag), E. coli BL21(DE3), Ni-Sepharose purified; GTG start changed to ATG; cloning primers encode N-terminal MVDAHQT, C-terminal LTSLLP
As to B2, in data set [2], the Km was found to be 64 µM and the kcat stood at 2.02 s⁻¹.
